Data taken from the supplement of paper PMC10567573.
± gives the standard deviation.

Assay: protein stability index of a GFP-peptide fusion (GPS, HEK-293T) (PSI 1-6); higher = more stable
Conditions: c terminus: a fixed tail appended
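Note: 24-mer peptide tiles fused after GFP, lentivirally expressed, FACS-sorted into six equal bins by GFP/DsRed ratio, decoded by Illumina sequencing, PSI is the read-weighted mean bin number.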

Row | Sequence | protein stability index (treatment: DMSO) | protein stability index (treatment: MLN4924 1 uM, 8 h)
1 | QKLIVNLKPEKSYSFVLTNRGNSA [PTPRD] | 2.58 ± 0.36 | 2.58 ± 0.13
2 | LKIPQVRGMDLSWESRTGDQYSYS [LCOR] | 2.87 ± 0.25 | 2.86 ± 0.31
3 | RNRGRFSSTTGLFYSAEIICAIEY [PRKX] | 2.92 ± 0.47 | 2.91 ± 0.71
4 | SERDSEAAKQNHVTADDFVQTSVI [EHMT1] | 5.34 ± 0.45 | 5.35 ± 0.34
5 | AALEEESRQRQSRMEKGEPYMSIQ [SMARCE1] | 4.88 ± 0.34 | 4.88 ± 0.22
6 | SCTIIFLASIFQLAMWTTALLHQA [TMEM175] | 2.5 ± 0.2 | 3.17 ± 0.54
7 | FFLFIGVILFSSAVYFAEADDPTS [KCNA3] | 2.8 ± 0.1 | 3.09 ± 0.2
8 | CYNGQDAVVNELIDYGANVNQPNN [ANKRD44] | 4.16 ± 0.088 | 4.24 ± 0.21
9 | HYYPKLMSIMGNVLRFLPAFVRMK [GFOD1] | 2.41 ± 0.12 | 2.24 ± 0.12
10 | GATVGRKSRRSRSESETSTMAAKK [C18orf25] | 5.23 ± 0.31 | 5.48 ± 0.27
11 | PHLPRVMLPGVLAGVSAEESWAGP [SCNN1D] | 3.37 ± 0.34 | 3.4 ± 0.24
12 | PLEGSAKGKVQAELSQPLTAGGAI [RBBP5] | 4.88 ± 0.19 | 4.72 ± 0.35
13 | TFAGDTCQVALNFANEEEAKKFRK [WASL] | 4.75 ± 0.12 | 4.73 ± 0.32
14 | YGRDSFVRLLLEFKAEVDPLSDKG [ASB7] | 2.65 ± 0.74 | 2.37 ± 0.28
15 | MNARGLGSELKDSIPVTELSASGP [POMP] | 4.78 ± 0.34 | 4.62 ± 0.23
